The values that follow come from the array DNA melting data of Ke et al..

The data set can be described thus: melting temperature; melt of duplexes. The following applies: sodium 0.0675 M; strand 1 µM.
Regarding “CGACGTGCCTTATGTGCTG+CAGCACATAGAGCACGTCG ((((((((..(((((((((+)))))))))..))))))))”, the Tm (commonly the temperature at which the thermal transition is half complete) came to 51.8 °C.

Turning to “CGACGTGCAAAATGTGCTG+CAGCACATGACGCACGTCG ((((((((...((((((((+))))))))...))))))))”, the Tm was 51.4 °C.

On to “CGACGTGCAGCATGTGCTG+CAGCACATGTAGCACGTCG ((((((((..(((((((((+)))))))))..))))))))”, for which the Tm turned out to be 54.4 °C.

Consider “CGACGTGCCGCATGTGCTG+CAGCACATTGTGCACGTCG ((((((((...((((((((+))))))))...))))))))”, for which the Tm was 45.7 °C.

With “CGACGTGCCGGATGTGCTG+CAGCACATGATGCACGTCG ((((((((...((((((((+))))))))...))))))))”, the Tm amounted to 49 °C.

Take “CGACGTGCGAGATGTGCTG+CAGCACATGCCGCACGTCG (((((((((..((((((((+))))))))..)))))))))”: the Tm stood at 55.4 °C.

In the case of “CGACGTGCAGTATGTGCTG+CAGCACATACCGCACGTCG ((((((((.((((((((((+)))))))))).))))))))”, the Tm came out at 55.7 °C.

Regarding “CGACGTGCCAAATGTGCTG+CAGCACATTCCGCACGTCG ((((((((..(((((((((+)))))))))..))))))))”, the Tm was found to be 50.1 °C.

Turning to “CGACGTGCGAAATGTGCTG+CAGCACATACAGCACGTCG ((((((((...((((((((+))))))))...))))))))”, the Tm came to 53.3 °C.

Consider “CGACGTGCTGAATGTGCTG+CAGCACATTGGGCACGTCG ((((((((..(((((((((+)))))))))..))))))))”, for which the Tm came out at 53.8 °C.

In the case of “CGACGTGCACAATGTGCTG+CAGCACATTTGGCACGTCG ((((((((..(((((((((+)))))))))..))))))))”, the Tm came to 51.2 °C.

For “CGACGTGCACTATGTGCTG+CAGCACATTGCGCACGTCG ((((((((.(.((((((((+)))))))).).))))))))”, the Tm was 48.8 °C.

As to “CGACGTGCCTTATGTGCTG+CAGCACATTACGCACGTCG ((((((((.(.((((((((+)))))))).).))))))))”, the Tm worked out at 47.7 °C.

“CGACGTGCCTCATGTGCTG+CAGCACATAGAGCACGTCG ((((((((...((((((((+))))))))...))))))))”: the Tm stood at 51.6 °C.

On to “CGACGTGCCTCATGTGCTG+CAGCACATATAGCACGTCG ((((((((...((((((((+))))))))...))))))))”, for which the Tm was 48.8 °C.

Regarding “CGACGTGCAGGATGTGCTG+CAGCACATCATGCACGTCG (((((((((.(((((((((+))))))))).)))))))))”, the Tm was 60.2 °C.

With “CGACGTGCCAAATGTGCTG+CAGCACATGCCGCACGTCG ((((((((...((((((((+))))))))...))))))))”, the Tm was found to be 50.6 °C.

Consider “CGACGTGCCGGATGTGCTG+CAGCACATGCCGCACGTCG ((((((((.(.((((((((+)))))))).).))))))))”, for which the Tm was 53.4 °C.

In the case of “CGACGTGCAATATGTGCTG+CAGCACATCTTGCACGTCG ((((((((((.((((((((+)))))))).))))))))))”, the Tm came to 54.8 °C.

Consider “CGACGTGCCGTATGTGCTG+CAGCACATGAGGCACGTCG (((((((((..((((((((+))))))))..)))))))))”, for which the Tm was 58.7 °C.

“CGACGTGCTCGATGTGCTG+CAGCACATTCAGCACGTCG (((((((((..((((((((+))))))))..)))))))))”: the midpoint of thermal melting (Tm) turned out to be 51.9 °C.

Turning to “CGACGTGCCGGATGTGCTG+CAGCACATGAAGCACGTCG ((((((((...((((((((+))))))))...))))))))”, the Tm is 49.9 °C.

For “CGACGTGCCGGATGTGCTG+CAGCACATGTCGCACGTCG ((((((((...((((((((+))))))))...))))))))”, the Tm was determined as 49.4 °C.

For “CGACGTGCAGCATGTGCTG+CAGCACATACCGCACGTCG ((((((((.(.((((((((+)))))))).).))))))))”, the Tm was found to be 47.3 °C.

As to “CGACGTGCTAAATGTGCTG+CAGCACATTCCGCACGTCG ((((((((..(((((((((+)))))))))..))))))))”, the Tm stood at 50.1 °C.

As to “CGACGTGCGGAATGTGCTG+CAGCACATGCTGCACGTCG ((((((((.(.((((((((+)))))))).).))))))))”, the Tm was 54.7 °C.

Regarding “CGACGTGCACAATGTGCTG+CAGCACATACCGCACGTCG ((((((((...((((((((+))))))))...))))))))”, the Tm was 44.6 °C.

“CGACGTGCCGGATGTGCTG+CAGCACATTCAGCACGTCG ((((((((.(.((((((((+)))))))).).))))))))”: the Tm is 52.4 °C.

Regarding “CGACGTGCGCAATGTGCTG+CAGCACATATGGCACGTCG ((((((((...((((((((+))))))))...))))))))”, the Tm came out at 50.7 °C.

Take “CGACGTGCAGGATGTGCTG+CAGCACATTTCGCACGTCG ((((((((...((((((((+))))))))...))))))))”: the midpoint of thermal melting (Tm) was 51.1 °C.

With “CGACGTGCCGAATGTGCTG+CAGCACATCCAGCACGTCG ((((((((.(.((((((((+)))))))).).))))))))”, the Tm came to 49.8 °C.

For “CGACGTGCCTAATGTGCTG+CAGCACATGCTGCACGTCG ((((((((...((((((((+))))))))...))))))))”, the Tm stood at 46.9 °C.

As for “CGACGTGCAATATGTGCTG+CAGCACATTTCGCACGTCG ((((((((.(.((((((((+)))))))).).))))))))”, the melting temperature (Tm) was determined as 50.1 °C.

On to “CGACGTGCCGTATGTGCTG+CAGCACATTTTGCACGTCG ((((((((...((((((((+))))))))...))))))))”, for which the Tm was 47.5 °C.

As to “CGACGTGCTAAATGTGCTG+CAGCACATCTTGCACGTCG ((((((((.(.((((((((+)))))))).).))))))))”, the Tm amounted to 50.1 °C.

“CGACGTGCAGTATGTGCTG+CAGCACATCTAGCACGTCG ((((((((...((((((((+))))))))...))))))))”: the Tm stood at 50.8 °C.

For the substance “CGACGTGCTGGATGTGCTG+CAGCACATCGTGCACGTCG ((((((((..(((((((((+)))))))))..))))))))”, the Tm amounted to 53.2 °C.

With “CGACGTGCCGAATGTGCTG+CAGCACATTTGGCACGTCG (((((((((.(((((((((+))))))))).)))))))))”, the Tm amounted to 60.6 °C.

“CGACGTGCATAATGTGCTG+CAGCACATGTAGCACGTCG ((((((((...((((((((+))))))))...))))))))”: the Tm stood at 52.6 °C.

For “CGACGTGCGGGATGTGCTG+CAGCACATCAAGCACGTCG ((((((((..(((((((((+)))))))))..))))))))”, the Tm came out at 57.6 °C.

Consider “CGACGTGCGAGATGTGCTG+CAGCACATTACGCACGTCG (((((((((..((((((((+))))))))..)))))))))”, for which the Tm came to 55.4 °C.

For the substance “CGACGTGCTCTATGTGCTG+CAGCACATTCTGCACGTCG ((((((((...((((((((+))))))))...))))))))”, the Tm was 47.8 °C.

As for “CGACGTGCATAATGTGCTG+CAGCACATACTGCACGTCG (((((((((..((((((((+))))))))..)))))))))”, the melting temperature (Tm) stood at 50.5 °C.

Regarding “CGACGTGCCGTATGTGCTG+CAGCACATCGTGCACGTCG ((((((((...((((((((+))))))))...))))))))”, the Tm is 51 °C.

With “CGACGTGCCCAATGTGCTG+CAGCACATCCAGCACGTCG ((((((((...((((((((+))))))))...))))))))”, the Tm was determined as 49 °C.

As to “CGACGTGCCTTATGTGCTG+CAGCACATACGGCACGTCG (((((((((.(((((((((+))))))))).)))))))))”, the midpoint of thermal melting (Tm) turned out to be 56.1 °C.

As for “CGACGTGCCAGATGTGCTG+CAGCACATTTCGCACGTCG ((((((((.(.((((((((+)))))))).).))))))))”, the Tm is 49.6 °C.

“CGACGTGCGGAATGTGCTG+CAGCACATCCAGCACGTCG ((((((((.(.((((((((+)))))))).).))))))))”: the melting temperature (Tm) was 55.1 °C.

On to “CGACGTGCGTGATGTGCTG+CAGCACATCGAGCACGTCG ((((((((..(((((((((+)))))))))..))))))))”, for which the melting temperature (Tm) was 58.6 °C.

For the substance “CGACGTGCCAGATGTGCTG+CAGCACATATTGCACGTCG ((((((((.(.((((((((+)))))))).).))))))))”, the Tm stood at 50.1 °C.

Take “CGACGTGCCTCATGTGCTG+CAGCACATCACGCACGTCG ((((((((.(.((((((((+)))))))).).))))))))”: the midpoint of thermal melting (Tm) came to 46.1 °C.

With “CGACGTGCTCTATGTGCTG+CAGCACATCGTGCACGTCG ((((((((.(.((((((((+)))))))).).))))))))”, the Tm came out at 45.2 °C.

Turning to “CGACGTGCAGTATGTGCTG+CAGCACATGATGCACGTCG (((((((((..((((((((+))))))))..)))))))))”, the melting temperature (Tm) worked out at 55 °C.

Consider “CGACGTGCCCGATGTGCTG+CAGCACATATAGCACGTCG ((((((((...((((((((+))))))))...))))))))”, for which the Tm worked out at 49 °C.

On to “CGACGTGCCTCATGTGCTG+CAGCACATACTGCACGTCG ((((((((...((((((((+))))))))...))))))))”, for which the midpoint of thermal melting (Tm) is 47 °C.

Take “CGACGTGCTCCATGTGCTG+CAGCACATACGGCACGTCG ((((((((...((((((((+))))))))...))))))))”: the Tm was 47 °C.

On to “CGACGTGCCCAATGTGCTG+CAGCACATGAGGCACGTCG (((((((((..((((((((+))))))))..)))))))))”, for which the Tm came to 56.1 °C.

For the substance “CGACGTGCGGGATGTGCTG+CAGCACATACAGCACGTCG ((((((((.(.((((((((+)))))))).).))))))))”, the Tm was 56.5 °C.

For “CGACGTGCCGTATGTGCTG+CAGCACATGGAGCACGTCG ((((((((...((((((((+))))))))...))))))))”, the Tm stood at 50.8 °C.

Regarding “CGACGTGCCTAATGTGCTG+CAGCACATAGTGCACGTCG ((((((((...((((((((+))))))))...))))))))”, the Tm worked out at 47.2 °C.

For the substance “CGACGTGCAGGATGTGCTG+CAGCACATCGTGCACGTCG (((((((((.(((((((((+))))))))).)))))))))”, the Tm is 58.3 °C.

On to “CGACGTGCGGAATGTGCTG+CAGCACATGTCGCACGTCG (((((((((..((((((((+))))))))..)))))))))”, for which the Tm turned out to be 57 °C.

“CGACGTGCTCCATGTGCTG+CAGCACATAAGGCACGTCG ((((((((...((((((((+))))))))...))))))))”: the Tm was 49 °C.

Consider “CGACGTGCTAGATGTGCTG+CAGCACATACGGCACGTCG ((((((((...((((((((+))))))))...))))))))”, for which the melting temperature (Tm) was found to be 49.9 °C.

With “CGACGTGCACAATGTGCTG+CAGCACATGTGGCACGTCG ((((((((...((((((((+))))))))...))))))))”, the Tm amounted to 51.2 °C.

For “CGACGTGCTATATGTGCTG+CAGCACATACCGCACGTCG ((((((((..(((((((((+)))))))))..))))))))”, the midpoint of thermal melting (Tm) amounted to 49.3 °C.
